Measurements reported in patent US20240391950A1, “PEPTIDE CROSSLINKING AGENT AND CROSSLINKED PEPTIDE WHICH IS CROSSLINKED USING SAID CROSSLINKING AGENT” (Kagoshima University, priority 2020, published 2024).
Starred links: 1 amine or outer side, 2 acyl side, 3 side chain; linkers in the order of their positions; H or OH if unused. Positions of bridges follow the written chain, without caps; N, C: chain ends. Residues, ends and D or L forms follow the SMILES beside them. No end group written: not given here. CH2COCH2 = O=C(C[*:1])C[*:2]

B1: 1,1-dichloropinacolin-crosslinked cyclic peptide of IgG-BP-LongGS (peptide)
peptide: GSGGSGPDCAYHRGELVWCTFH
modifications: the thiol groups of the two Cys residues crosslinked with 1,1-dichloropinacolin in place of the disulfide bond; Fmoc removed
B2: 1,1-dichloroacetone-crosslinked cyclic peptide of IgG-BP-LongGS (peptide)
peptide: GSGGSGPDCAYHRGELVWCTFH
modifications: not fully specified; the thiol groups of the two Cys residues crosslinked with 1,1-dichloroacetone (1,1-Dichloro-2-propanone) in place of the disulfide bond; Fmoc removed

Columns and labels:
[1] = target: human IgG1 (Homo sapiens, UniProt P01857); assay: SPR (BIAcore T200) measurement of binding affinity of crosslinked cyclic peptide to immobilized IgG
Experimental: The affinity analysis was performed by the following method. First, a CM5 sensor chip was installed on BIAcoreT200 (GE healthcare), and 0.4 M 1-ethyl-3-(3-dimethylaminopropyl)carbodiimide (EDC) and a 0.1 M sulfo-N-hydroxysuccinimide (sulfo-NHS) solution mixed in equivalent amounts were injected to the sensor chip at a flow rate of […], to thereby activate the sensor chip. Thereafter, IgG was immobilized onto the sensor chip under a condition of a pH of 5.5 (10 mM Na acetate). An HBS-EP buffer (10 mM HEPES, 150 mM NaCl, 0.005% Tween 20, 3 mM EDTA, pH 7.4) was used in measurement, and 15.625, 31.2, 62.5, 125, 250, and 500 nM of peptides were each injected at a flow rate of […] for 180 seconds, to thereby monitor binding reaction. When dissociation reaction was measured, only the buffer was injected for 600 seconds. The interaction parameter was analyzed with BIAevaluation T100 software.
IgG-binding peptide derivatives compared and evaluated are illustrated in FIG. 1.

[2] = test system: human serum-derived IgG; assay: Dynamic binding capacity (DBC) measurement and alkali resistance evaluation of peptide-immobilized column; conditions: initial value; 1 mg peptide on 1-mL column, 1 mL/min
Experimental: Five mL of 1 mM hydrochloric acid was sent to an NHS-activated prepacked column having a volume of 1 mL, and an isopropanol solution in the column was removed. Next, a 10.0 mg/mL peptide solution (dissolved in 100 μL of DMSO) was diluted with a coupling solution (20 mM carbonate buffer, 50 mM sodium chloride, pH 8.3) by 10-fold, 1 mL of the dilution liquid was sent, and immobilization was performed at room temperature for 4 hours. Thereafter, unreacted NHS was blocked by 5 mL of 1 M Tris (pH 8.0) at room temperature for 1 hour. Thereafter, washing with 5 mL of an aqueous 0.1 N NaOH solution was made. Finally, 10 mL of a PBS solution (20 mM phosphate buffer, 150 mM sodium chloride, pH 7.4) was sent, and used in chromatography evaluation.
A column where the amount of immobilization of a peptide was 1 mg was produced by the same method as described above. The column produced was equilibrated with PBS, and 1 mg/mL human serum-derived IgG (manufactured by Sigma-Aldrich Co. LLC) dissolved in PBS was sent at a flow rate of 1 mL/min (retention time 1 min). DBC was indicated as one determined from the amount of a protein added at the time of point where 10% of the absorbance at 280 nm of the sample added was leaked.
Next, 5 mL of an aqueous 0.1 N sodium hydroxide solution was sent to the 1-mL column where 1 mg of the peptide was immobilized. Thereafter, washing with PBS was performed. This cycle was repeated 30 times for the 1,1-dichloroacetone-crosslinked cyclic peptide, and was repeated 10 times for the 1,1-dichloropinacolin-crosslinked cyclic peptide. DBC measurement was performed at a flow rate of 1 mL/min at the 1st to 5th and 10th times of the cycles, and further performed at the 20th and 30th times of the cycles with respect to the 1,1-dichloroacetone-crosslinked cyclic peptide, and thus alkali resistance was evaluated. The variation in DBC was determined based on the measurement results under the assumption that DBC immediately after column production was 100% according to Table 2.
Five mL of a 0.1 M sodium hydroxide solution was sent to the produced 1-mL column where the amount of immobilization of a peptide was 1 mg, and thereafter washing with 5 mL of PBS was performed. These operations were defined as one cycle and treatment of washing with aqueous NaOH solution/washing with PBS was performed 1 to 30 times, and thereafter DBC measurement was performed at a flow rate of 1 mL/min at the intended number of times (1, 2, 3, 4, 5, 10, 20, 30 times).

[3] = target: IgG; conditions: Patent Literature 2; read-out: Kd (affinity with IgG); cited from earlier work
[4] = target: human IgG1 (human); assay: SPR, BIAcore T200, IgG immobilised on CM5 chip
[5] = target: human serum-derived IgG (manufactured by Sigma-Aldrich Co. LLC); assay: peptide-immobilised column, human serum IgG, 10% breakthrough
[6] = target: human IgG1 (human); assay: SPR, BIAcore T200, IgG immobilised on CM5 chip, peptide as analyte
[7] = target: human serum-derived IgG (manufactured by Sigma-Aldrich Co. LLC); assay: 1 mL column with 1 mg peptide immobilised, human serum IgG; 1 wash with 0.1 N NaOH
[8] = target: human serum-derived IgG (manufactured by Sigma-Aldrich Co. LLC); assay: 1 mL column with 1 mg peptide immobilised, human serum IgG; 2 washes with 0.1 N NaOH
[9] = target: human serum-derived IgG (manufactured by Sigma-Aldrich Co. LLC); assay: 1 mL column with 1 mg peptide immobilised, human serum IgG; 5 washes with 0.1 N NaOH
[10] = target: human serum-derived IgG (manufactured by Sigma-Aldrich Co. LLC); assay: 1 mL column with 1 mg peptide immobilised, human serum IgG; 10 washes with 0.1 N NaOH
[11] = target: human serum-derived IgG (manufactured by Sigma-Aldrich Co. LLC); assay: 1 mL column with 1 mg peptide immobilised, human serum IgG, 10% breakthrough; 1 wash with 0.1 N NaOH
[12] = target: human serum-derived IgG (manufactured by Sigma-Aldrich Co. LLC); assay: 1 mL column with 1 mg peptide immobilised, human serum IgG 1 mg/mL at 1 mL/min; 1 wash with 0.1 N NaOH
[13] = target: human serum-derived IgG (manufactured by Sigma-Aldrich Co. LLC); assay: 1 mL column with 1 mg peptide immobilised, human serum IgG, 10% breakthrough; 2 washes with 0.1 N NaOH
[14] = target: human serum-derived IgG (manufactured by Sigma-Aldrich Co. LLC); assay: 1 mL column with 1 mg peptide immobilised, human serum IgG, 10% breakthrough; 5 washes with 0.1 N NaOH
[15] = target: human serum-derived IgG (manufactured by Sigma-Aldrich Co. LLC); assay: 1 mL column with 1 mg peptide immobilised, human serum IgG, 10% breakthrough; 10 washes with 0.1 N NaOH
[16] = target: human serum-derived IgG (manufactured by Sigma-Aldrich Co. LLC); assay: 1 mL column with 1 mg peptide immobilised, human serum IgG 1 mg/mL at 1 mL/min; 2 washes with 0.1 N NaOH
[17] = target: human serum-derived IgG (manufactured by Sigma-Aldrich Co. LLC); assay: 1 mL column with 1 mg peptide immobilised, human serum IgG 1 mg/mL at 1 mL/min; 5 washes with 0.1 N NaOH
[18] = target: human serum-derived IgG (manufactured by Sigma-Aldrich Co. LLC); assay: 1 mL column with 1 mg peptide immobilised, human serum IgG 1 mg/mL at 1 mL/min; 10 washes with 0.1 N NaOH
[19] = target: human IgG1 (human); assay: SPR, BIAcore T200, IgG immobilised on CM5 chip; the text value differs from Table 1 (8.0)
[20] = target: human serum-derived IgG (manufactured by Sigma-Aldrich Co. LLC); assay: 1 mL column with 1 mg peptide immobilised, human serum IgG; 3 washes with 0.1 N NaOH
[21] = target: human serum-derived IgG (manufactured by Sigma-Aldrich Co. LLC); assay: 1 mL column with 1 mg peptide immobilised, human serum IgG; 4 washes with 0.1 N NaOH
[22] = target: human serum-derived IgG (manufactured by Sigma-Aldrich Co. LLC); assay: 1 mL column with 1 mg peptide immobilised, human serum IgG; 20 washes with 0.1 N NaOH
[23] = target: human serum-derived IgG (manufactured by Sigma-Aldrich Co. LLC); assay: 1 mL column with 1 mg peptide immobilised, human serum IgG; 30 washes with 0.1 N NaOH
[24] = target: human serum-derived IgG (manufactured by Sigma-Aldrich Co. LLC); assay: 1 mL column with 1 mg peptide immobilised, human serum IgG, 10% breakthrough; 3 washes with 0.1 N NaOH
[25] = target: human serum-derived IgG (manufactured by Sigma-Aldrich Co. LLC); assay: 1 mL column with 1 mg peptide immobilised, human serum IgG, 10% breakthrough; 4 washes with 0.1 N NaOH
[26] = target: human serum-derived IgG (manufactured by Sigma-Aldrich Co. LLC); assay: 1 mL column with 1 mg peptide immobilised, human serum IgG, 10% breakthrough; 20 washes with 0.1 N NaOH
[27] = target: human serum-derived IgG (manufactured by Sigma-Aldrich Co. LLC); assay: 1 mL column with 1 mg peptide immobilised, human serum IgG, 10% breakthrough; 30 washes with 0.1 N NaOH
[28] = target: human serum-derived IgG (manufactured by Sigma-Aldrich Co. LLC); assay: 1 mL column with 1 mg peptide immobilised, human serum IgG 1 mg/mL at 1 mL/min; 3 washes with 0.1 N NaOH
[29] = target: human serum-derived IgG (manufactured by Sigma-Aldrich Co. LLC); assay: 1 mL column with 1 mg peptide immobilised, human serum IgG 1 mg/mL at 1 mL/min; 4 washes with 0.1 N NaOH
[30] = target: human serum-derived IgG (manufactured by Sigma-Aldrich Co. LLC); assay: 1 mL column with 1 mg peptide immobilised, human serum IgG 1 mg/mL at 1 mL/min; 20 washes with 0.1 N NaOH
[31] = target: human serum-derived IgG (manufactured by Sigma-Aldrich Co. LLC); assay: 1 mL column with 1 mg peptide immobilised, human serum IgG 1 mg/mL at 1 mL/min; 30 washes with 0.1 N NaOH

human IgG1, sequence (P01857 1-328 limits assumed): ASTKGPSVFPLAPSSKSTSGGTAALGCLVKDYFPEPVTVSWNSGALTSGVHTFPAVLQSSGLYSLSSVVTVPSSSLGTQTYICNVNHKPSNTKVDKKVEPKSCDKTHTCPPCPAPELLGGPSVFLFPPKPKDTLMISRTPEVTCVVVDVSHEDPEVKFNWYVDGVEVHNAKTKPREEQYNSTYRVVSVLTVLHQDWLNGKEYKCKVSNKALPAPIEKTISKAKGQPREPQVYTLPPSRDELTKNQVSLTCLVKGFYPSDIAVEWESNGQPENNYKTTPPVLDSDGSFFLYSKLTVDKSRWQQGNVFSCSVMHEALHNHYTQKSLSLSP

| Molecule | fold reduction of affinity against the original peptide [4] [fold] | DBC relative to the original IgG-binding peptide-immobilized column [5] [%] | Kd [6] [nM] | Variation (%) in maximum binding capacity [7] [%] | Variation (%) in maximum binding capacity [8] [%] | Variation (%) in maximum binding capacity [9] [%] | Variation (%) in maximum binding capacity [10] [%] | Dynamic binding capacity [11] [mg/mL] | Variation (%) in dynamic binding capacity [11] [%] | Maximum binding capacity [12] [mg] | Dynamic binding capacity [13] [mg/mL] | Variation (%) in dynamic binding capacity [13] [%] | Dynamic binding capacity [14] [mg/mL] | Variation (%) in dynamic binding capacity [14] [%] | Dynamic binding capacity [15] [mg/mL] | Variation (%) in dynamic binding capacity [15] [%] | Maximum binding capacity [16] [mg] | Maximum binding capacity [17] [mg] | Maximum binding capacity [18] [mg] | other results |
| --- | --- | --- | --- | --- | --- | --- | --- | --- | --- | --- | --- | --- | --- | --- | --- | --- | --- | --- | --- | --- |
| CC(C)C[C@@H]1NC(=O)[C@H](CCC(=O)O)NC(=O)CNC(=O)[C@H](CCCNC(=N)N)NC(=O)[C@H](Cc2c[nH]cn2)NC(=O)[C@H](Cc2ccc(O)cc2)NC(=O)[C@H](C)NC(=O)[C@@H](NC(=O)[C@H](CC(=O)O)NC(=O)[C@@H]2CCCN2C(=O)CNC(=O)[C@H](CO)NC(=O)CNC(=O)CNC(=O)[C@H](CO)NC(=O)CN)CSCC(=O)CSC[C@@H](C(=O)N[C@H](C(=O)N[C@@H](Cc2ccccc2)C(=O)N[C@@H](Cc2c[nH]cn2)C(=O)O)[C@@H](C)O)NC(=O)[C@H](Cc2c[nH]c3ccccc23)NC(=O)[C@H](C(C)C)NC1=O [IgG-BP-LongGS 1,3-dichloroacetone] (H-GSGGSGPDCAYHRGELVWCTFH-OH; linker 9-19 via CH2COCH2; N-terminus and C-terminus assumed) | – | – | – | – | – | – | – | – | – | – | – | – | – | – | – | – | – | – | – | reduction of affinity as compared with the original peptide ([1]; Kd relative to original disulfide IgG-binding peptide): about 500 fold; kd ([1]; SPR, IgG immobilized on CM5 chip, HBS-EP pH 7.4): 0.005; ka ([1]; SPR, IgG immobilized on CM5 chip, HBS-EP pH 7.4, in M-1 s-1 (unit assumed)): 1.00E+03; initial value of DBC of peptide column [2]: 2.3 mg/mL-column; Kd [3]: 4900 nM |
| B1 | 14 | 96 | 112 | 100 | 99.8 | 89.8 | 87.1 | 16.7 | 100 | 12.1 | 17.2 | 103 | 16.2 | 97.2 | 14.5 | 86.6 | 12.1 | 10.9 | 10.6 | – |
| GSGGSGPDCAYHRGELVWCTFH (disulfide 9-19 (inferred); not fully specified) [IgG-BP-LongGS, original IgG-binding peptide having a disulfide bond (GSGGS-…)] | – | – | 8 | 100 | – | 49.2 | – | 17.2 | 100 | 12.4 | – | – | 8.74 | 50.7 | – | – | – | 6.09 | – | Kd [19]: 8.2 nM |
| B2 | 5 | 74 | 45.6 | 100 | 100 | 103 | 96.3 | 12.8 | 100 | 9.68 | 12.8 | 100 | 12.4 | 96.9 | 12.2 | 95.3 | 9.7 | 9.93 | 9.32 | Variation (%) in maximum binding capacity [20]: 102%; Variation (%) in maximum binding capacity [21]: 104%; Variation (%) in maximum binding capacity [22]: 86.3%; Variation (%) in maximum binding capacity [23]: 90.7%; Dynamic binding capacity [24]: 12.2 mg/mL; Variation (%) in dynamic binding capacity [24]: 95.3%; Dynamic binding capacity [25]: 12.2 mg/mL; Variation (%) in dynamic binding capacity [25]: 95.3%; Dynamic binding capacity [26]: 12.4 mg/mL; Variation (%) in dynamic binding capacity [26]: 96.9%; Dynamic binding capacity [27]: 11.6 mg/mL; Variation (%) in dynamic binding capacity [27]: 90.6%; Maximum binding capacity [28]: 9.88 mg; Maximum binding capacity [29]: 10.1 mg; Maximum binding capacity [30]: 8.35 mg; Maximum binding capacity [31]: 8.78 mg |
